# T1: V459A (Homo sapiens, UniProt P78325)
# T1 construct: expressed on HEK293 cells; also called human ADAM8 point mutant V459A
# T1 sequence (ADAM8, looked up): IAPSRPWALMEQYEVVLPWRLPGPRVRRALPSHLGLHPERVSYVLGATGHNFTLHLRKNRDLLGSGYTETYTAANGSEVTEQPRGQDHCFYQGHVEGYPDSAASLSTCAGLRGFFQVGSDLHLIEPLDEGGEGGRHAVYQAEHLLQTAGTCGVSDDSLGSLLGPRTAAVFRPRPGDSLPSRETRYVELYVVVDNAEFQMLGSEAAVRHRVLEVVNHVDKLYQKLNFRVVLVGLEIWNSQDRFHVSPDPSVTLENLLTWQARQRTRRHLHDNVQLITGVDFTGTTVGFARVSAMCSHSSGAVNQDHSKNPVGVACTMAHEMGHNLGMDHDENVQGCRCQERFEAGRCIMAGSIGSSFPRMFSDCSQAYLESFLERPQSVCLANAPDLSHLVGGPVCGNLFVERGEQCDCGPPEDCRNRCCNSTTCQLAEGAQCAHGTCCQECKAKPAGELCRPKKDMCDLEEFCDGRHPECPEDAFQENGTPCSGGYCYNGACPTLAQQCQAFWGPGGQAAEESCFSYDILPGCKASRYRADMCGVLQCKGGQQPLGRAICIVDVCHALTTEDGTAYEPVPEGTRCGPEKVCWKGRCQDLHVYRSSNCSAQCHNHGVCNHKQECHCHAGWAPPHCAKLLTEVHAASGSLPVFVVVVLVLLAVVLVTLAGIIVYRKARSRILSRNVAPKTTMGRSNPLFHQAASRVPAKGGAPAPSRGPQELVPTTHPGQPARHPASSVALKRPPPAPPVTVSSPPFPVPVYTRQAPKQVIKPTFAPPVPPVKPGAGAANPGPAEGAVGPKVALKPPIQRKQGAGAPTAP
# T2: Recombinant human ADAM12 (Acro Biosystems, AD2-H5228) (human, UniProt O43184 208-708)
# T2 sequence (looked up): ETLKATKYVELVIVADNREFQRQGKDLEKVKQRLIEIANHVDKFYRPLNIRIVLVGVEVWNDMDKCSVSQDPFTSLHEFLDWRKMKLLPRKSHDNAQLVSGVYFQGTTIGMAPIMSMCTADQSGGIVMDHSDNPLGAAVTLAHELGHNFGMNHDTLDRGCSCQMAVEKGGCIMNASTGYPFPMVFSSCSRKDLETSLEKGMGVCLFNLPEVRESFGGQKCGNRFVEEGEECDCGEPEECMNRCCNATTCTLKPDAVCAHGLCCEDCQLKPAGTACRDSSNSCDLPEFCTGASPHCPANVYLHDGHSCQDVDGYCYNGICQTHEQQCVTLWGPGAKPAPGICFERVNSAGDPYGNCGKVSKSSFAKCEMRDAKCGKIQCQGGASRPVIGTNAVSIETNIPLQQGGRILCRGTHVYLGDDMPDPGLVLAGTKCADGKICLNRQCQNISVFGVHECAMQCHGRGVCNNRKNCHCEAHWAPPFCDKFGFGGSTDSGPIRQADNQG
# B1: ADP2 Fab (Fab, V domains shown)
# VH: EVKLVESGGGLVQPGGSLSLSCAASGFSFPDYYMSWVRQPPGKALEWLGFIRDSANGYTTEYIASVKGRFTFSRDNSQSILYLQMNALRAEDSATYYCARYSRYYGMDYWGQGTSVTVSS
# VL: SIVMTQTPKILLVSAGDRVTITCKASQTVNYDVAWYQQKPGQSPKPVIYFASNRYTGVPDRFTGSGFGTDFTFTISTVQAEDLAVYFCQQDYSAPWTFGGGTKLEIK
# B2: ADP3 (antibody, IgG1, V domains shown)
# VH: EVKLEESGGGLVQPGGSMKLSCAASGFTFSDAWMDWVRQSPEKGLEWVAEIRGKVNNLATYYVESVKGRFTISRDDSKSSVYLQMNSLRAEDTGIYYCLGRYDATYAMDYWGQGTSVTVSS
# VL: DVVMTQTPLSLPVSLGDQASISCRSSQSLVHSDGNTYLHWYLQKPGQSPKLLIYKLSNRFSGVPDRFSGSGSGTDFTLKISRVEAEDLGVYFCSQSTHVPWTFGGGTKLEIK
# Experiments:
# V459A = molecular target: T1, V459A; experiment: high-throughput flow cytometry, HEK293 cells with mutant ADAM8, high stringency; range in parentheses
# Summary of the method: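 HEK293 cells expressing WT or alanine-mutant ADAM8 were stained for 60 min with ADP2 Fab (0.50 μg/ml) or ADP13 Fab (5.00 μg/ml) in PBS with 10% goat serum under high-stringency conditions. Detection used an Alexa Fluor 488 secondary, with mean cellular fluorescence measured by high-throughput flow cytometry in duplicate.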
# [1] = molecular target: T2, Recombinant human ADAM12 (Acro …); experiment: ELISA, recombinant ADAM12
# Experimental: ELISA assays were also used to test hybridoma clones, subclones and purified ADP antibodies for specificity of ADAM8 binding, i.e., binding to rHuADAM8 (Acro Biosystems, AD8-H5223) was compared to binding to closely related recombinant human ADAM proteins: […], ADAM12 (Acro Biosystems, AD2-H5228) and ADAM15 (Sino Biological, 10517-H08H). For analysis of clones and subclones, 50 μl of cell supernatants were used. A test bleed sample (1:1000) was used as a positive control. Hybridoma culture medium or a pre-bleed serum sample (1:1000) was used as a negative control. Purified mouse ADPs were assessed at 1 μg/ml vs normal mouse IgG and with a test bleed sample as a positive control. ADP binding was detected with a goat anti-mouse IgG (Fc specific)-peroxidase antibody (1:5000, Sigma-Aldrich, A0168).
Binder,Binding Reactivity (% WT) (V459A),binding result [1]
B1,55.6,
B2,,no binding (tested: 1 µg/ml)

# Source: US20220227882A1 (TRUSTEES OF TUFTS COLLEGE, published 2022)
